Results: paper PMC10397247
Where two headings read alike, the source gives them in different places.

Experiments:
[1] = target: T1, 4H963-AA; test: two-hybrid library CCmax; conditions: mean of both orientations;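 also: natural log of median RNA to DNA barcode read ratio; higher means stronger binding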
T1 chain: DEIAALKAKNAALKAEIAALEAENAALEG

[2] = target: T2, 4H452-AA; test: two-hybrid library CCmax; conditions: mean of both orientations;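 also: natural log of median RNA to DNA barcode read ratio; higher means stronger binding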
T2 chain: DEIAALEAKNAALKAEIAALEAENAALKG

[3] = target: T3, 4H56-AA; test: two-hybrid library CCmax; conditions: mean of both orientations;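 also: natural log of median RNA to DNA barcode read ratio; higher means stronger binding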
T3 chain: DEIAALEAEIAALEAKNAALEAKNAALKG

[4] = target: GCN2_T; test: two-hybrid library CCmax; conditions: mean of both orientations;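 also: natural log of median RNA to DNA barcode read ratio; higher means stronger binding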
[5] = target: T4, 4H_APH; test: two-hybrid library CCmax; conditions: mean of both orientations;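 also: natural log of median RNA to DNA barcode read ratio; higher means stronger binding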
T4 chain: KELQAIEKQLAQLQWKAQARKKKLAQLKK

[6] = target: T5, 4H688-AA; test: two-hybrid library CCmax; conditions: mean of both orientations;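 also: natural log of median RNA to DNA barcode read ratio; higher means stronger binding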
T5 chain: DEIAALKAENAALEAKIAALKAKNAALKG

[7] = target: T6, 4H376-AA; test: two-hybrid library CCmax; conditions: mean of both orientations
T6 chain: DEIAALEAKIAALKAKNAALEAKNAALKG

[8] = target: T7, 4H3493-AA; test: two-hybrid library CCmax
T7 chain: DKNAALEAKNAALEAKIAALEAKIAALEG

[9] = target: T8, 4H406-AA; test: two-hybrid library CCmax; conditions: mean of both orientations
T8 chain: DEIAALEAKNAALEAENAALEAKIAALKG

[10] = target: 4H_GCN4; test: two-hybrid library CCmax
[11] = target: T9, 4H_BCR; test: two-hybrid library CCmax; conditions: mean of both orientations
T9 chain: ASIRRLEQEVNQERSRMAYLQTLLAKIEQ

[12] = target: T10, 4H347-AA; test: two-hybrid library CCmax
T10 chain: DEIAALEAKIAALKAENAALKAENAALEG

[13] = target: T11, O8; test: two-hybrid library CCNG1
T11 chain: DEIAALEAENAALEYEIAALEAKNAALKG

[14] = target: T12, O7; test: two-hybrid library CCNG1
T12 chain: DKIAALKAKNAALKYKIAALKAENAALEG

[15] = target: T13, O9; test: two-hybrid library CCNG1
T13 chain: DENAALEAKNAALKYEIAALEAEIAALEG

[16] = target: T14, APC3323-AA; test: two-hybrid library CCmax; conditions: mean of both orientations
T14 chain: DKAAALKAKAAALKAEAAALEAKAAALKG

[17] = target: T15, APC542-AA; test: two-hybrid library CCmax; conditions: mean of both orientations
T15 chain: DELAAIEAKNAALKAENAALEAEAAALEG

[18] = target: T16, APC9141-AA; test: two-hybrid library CCmax; conditions: mean of both orientations
T16 chain: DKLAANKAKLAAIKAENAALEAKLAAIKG

[19] = target: T17, APC8516-AA; test: two-hybrid library CCmax; conditions: mean of both orientations
T17 chain: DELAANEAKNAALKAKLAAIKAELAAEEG

[20] = target: T18, APC5009-AA; test: two-hybrid library CCmax; conditions: mean of both orientations
T18 chain: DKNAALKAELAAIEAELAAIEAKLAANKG

[21] = target: T19, APC5531-AA; test: two-hybrid library CCmax; conditions: mean of both orientations
T19 chain: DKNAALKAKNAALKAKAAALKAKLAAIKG

[22] = target: T20, APC9182-AA; test: two-hybrid library CCmax; conditions: mean of both orientations
T20 chain: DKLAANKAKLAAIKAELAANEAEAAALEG

[23] = target: T21, APC4100-AA; test: two-hybrid library CCmax; conditions: mean of both orientations
T21 chain: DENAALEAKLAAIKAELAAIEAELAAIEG

[24] = target: T22, APC9291-AA; test: two-hybrid library CCmax; conditions: mean of both orientations
T22 chain: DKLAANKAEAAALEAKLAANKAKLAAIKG

[25] = target: T23, APC9806-AA; test: two-hybrid library CCmax; conditions: mean of both orientations
T23 chain: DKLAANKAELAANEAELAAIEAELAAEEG

[26] = target: T24, APC6088-AA; test: two-hybrid library CCmax; conditions: mean of both orientations
T24 chain: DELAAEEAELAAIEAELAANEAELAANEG

[27] = target: T25, APC3881-AA; test: two-hybrid library CCmax; conditions: mean of both orientations
T25 chain: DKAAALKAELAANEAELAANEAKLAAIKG

[28] = target: T26, APC3354-AA; test: two-hybrid library CCmax; conditions: mean of both orientations
T26 chain: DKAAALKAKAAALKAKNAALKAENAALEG

[29] = target: T27, APC8401-AA; test: two-hybrid library CCmax; conditions: mean of both orientations
T27 chain: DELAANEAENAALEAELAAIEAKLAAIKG

[30] = target: T28, APC3265-AA; test: two-hybrid library CCmax
T28 chain: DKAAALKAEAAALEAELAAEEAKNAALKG

[31] = target: T29, APC7524-AA; test: two-hybrid library CCmax; conditions: mean of both orientations
T29 chain: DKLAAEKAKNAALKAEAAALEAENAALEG

[32] = target: T30, APC4336-AA; test: two-hybrid library CCmax; conditions: mean of both orientations
T30 chain: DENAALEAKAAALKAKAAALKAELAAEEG

[33] = target: T31, O7-bS; test: two-hybrid library CCNG1
T31 chain: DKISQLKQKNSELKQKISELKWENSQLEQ

[34] = target: T32, O6-bS; test: two-hybrid library CCNG1
T32 chain: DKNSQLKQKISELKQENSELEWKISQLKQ

[35] = target: T33, O8-bS; test: two-hybrid library CCNG1
T33 chain: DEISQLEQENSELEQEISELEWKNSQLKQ

[36] = target: T34, O9-bS; test: two-hybrid library CCNG1
T34 chain: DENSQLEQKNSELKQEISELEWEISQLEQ

[37] = target: T35, 4H629-AA; test: two-hybrid library CCmax; conditions: mean of both orientations
T35 chain: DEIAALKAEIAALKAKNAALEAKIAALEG

[38] = target: T36, 4H458-AA; test: two-hybrid library CCmax; conditions: mean of both orientations
T36 chain: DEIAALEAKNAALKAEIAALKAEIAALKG

[39] = target: T37, 4H891-AA; test: two-hybrid library CCmax; conditions: mean of both orientations
T37 chain: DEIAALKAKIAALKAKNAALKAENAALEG

[40] = target: T38, 4H3865-AA; test: two-hybrid library CCmax; conditions: mean of both orientations
T38 chain: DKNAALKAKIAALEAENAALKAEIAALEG

[41] = target: T39, 4H3697-AA; test: two-hybrid library CCmax; conditions: mean of both orientations
T39 chain: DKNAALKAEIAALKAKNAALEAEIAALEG

[42] = target: T40, 4H3395-AA; test: two-hybrid library CCmax; conditions: mean of both orientations
T40 chain: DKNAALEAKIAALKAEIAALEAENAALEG

[43] = target: T41, 4H797-AA; test: two-hybrid library CCmax; conditions: mean of both orientations
T41 chain: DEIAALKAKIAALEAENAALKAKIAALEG

[44] = target: T42, 4H710-AA; test: two-hybrid library CCmax; conditions: mean of both orientations
T42 chain: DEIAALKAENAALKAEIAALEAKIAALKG

[45] = target: T43, 4H570-AA; test: two-hybrid library CCmax; conditions: mean of both orientations
T43 chain: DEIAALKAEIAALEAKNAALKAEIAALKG

[46] = target: T44, 4H3381-AA; test: two-hybrid library CCmax
T44 chain: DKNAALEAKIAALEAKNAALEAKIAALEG

[47] = target: T45, 4H930-AA; test: two-hybrid library CCmax; conditions: mean of both orientations
T45 chain: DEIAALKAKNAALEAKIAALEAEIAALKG

[48] = target: T46, 4H850-AA; test: two-hybrid library CCmax; conditions: mean of both orientations
T46 chain: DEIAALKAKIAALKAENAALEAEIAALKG

[49] = target: T47, 4H3410-AA; test: two-hybrid library CCmax; conditions: mean of both orientations
T47 chain: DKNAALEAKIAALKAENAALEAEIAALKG

[50] = target: T48, 4H3590-AA; test: two-hybrid library CCmax; conditions: mean of both orientations
T48 chain: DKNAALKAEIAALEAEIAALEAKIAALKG

[51] = target: T49, 4H3753-AA; test: two-hybrid library CCmax; conditions: mean of both orientations
T49 chain: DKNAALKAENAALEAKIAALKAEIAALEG

[52] = target: T50, 4H94-AA; test: two-hybrid library CCmax; conditions: mean of both orientations
T50 chain: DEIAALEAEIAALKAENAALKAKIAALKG

[53] = target: T51, 4H485-AA; test: two-hybrid library CCmax; conditions: mean of both orientations
T51 chain: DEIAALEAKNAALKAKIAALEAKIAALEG

[54] = target: T52, 4H536-AA; test: two-hybrid library CCmax; conditions: mean of both orientations
T52 chain: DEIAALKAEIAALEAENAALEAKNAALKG

[55] = target: T53, 4H909-AA; test: two-hybrid library CCmax; conditions: mean of both orientations
T53 chain: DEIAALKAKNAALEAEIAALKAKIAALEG

[56] = target: T54, 4H745-AA; test: two-hybrid library CCmax; conditions: mean of both orientations
T54 chain: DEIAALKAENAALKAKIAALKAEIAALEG

Sequence of 4H_GCN4 (chain, as listed by the source): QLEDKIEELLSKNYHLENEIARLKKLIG

DEIAALEAKIAALKAENAALKAENAALEG [4H347-AA]
interaction score [1]: -1.41
interaction score [2]: -0.224
interaction score [3]: -0.0342
interaction score [4]: -2.14
interaction score [5]: -1.79
interaction score [6]: -0.941
interaction score [7]: -1.06
interaction score ([8]; mean of both orientations): -2.08
interaction score [9]: -1.21
interaction score [10]: -2.04
interaction score [11]: -1.88
interaction score [12]: -0.315

DKIAALKAKNAALKYKIAALKAENAALEG [O7]
interaction score [13]: 1.54
interaction score [14]: -2.89
interaction score [15]: -2.46

DKAAALKAEAAALEAELAAEEAKNAALKG [APC3265-AA]
interaction score [16]: -1.79
interaction score [17]: -1.56
interaction score [18]: -1.63
interaction score [19]: -1.33
interaction score [20]: -1.45
interaction score [21]: -1.82
interaction score [22]: -1.78
interaction score [23]: -1.05
interaction score [24]: -1.49
interaction score [25]: -1.38
interaction score [26]: -1.89
interaction score [27]: -1.45
interaction score [28]: -1.86
interaction score [29]: -1.36
interaction score [30]: -1.08
interaction score [31]: -1.43
interaction score [32]: -1.54

DKNSQLKQKISELKQENSELEWKISQLKQ [O6-bS]
interaction score [33]: -0.489
interaction score [34]: -1.84
interaction score [35]: -1.78
interaction score [36]: -0.588

DKNAALEAKIAALEAKNAALEAKIAALEG [4H3381-AA]
interaction score [37]: -1.4
interaction score [38]: -1.53
interaction score [1]: -2.17
interaction score [39]: -1.56
interaction score [40]: -1.52
interaction score [41]: -1.45
interaction score [42]: -1.66
interaction score [6]: -1.36
interaction score [43]: -1.57
interaction score [7]: -1.55
interaction score [44]: -1.49
interaction score [45]: -1.34
interaction score ([8]; mean of both orientations): -1.77
interaction score [9]: -1.15
interaction score [46]: 0.71
interaction score [47]: -1.38
interaction score [48]: -1.85
interaction score [49]: -1.09
interaction score [50]: -1.02
interaction score [51]: -1.71
interaction score [52]: -1.76
interaction score [53]: -0.941
interaction score [54]: -1.65
interaction score [55]: -1.66
interaction score [56]: -1.6
interaction score ([12]; mean of both orientations): -1.55

DKNAALEAKNAALEAKIAALEAKIAALEG [4H3493-AA]
interaction score [1]: -1.58
interaction score [6]: -1.63
interaction score [7]: -1.47
interaction score [8]: 0.972
interaction score [9]: -1.82
